B1: anti-MAdCAM monoclonal antibody 7.26.4 (antibody, human IgG2, kappa, V domains shown)
VH: QVQLVQSGAEVKKPGASVKVSCEASGYTFTSYGIDWVRQAPGQGLEWMGWISVYSGNTNYAQKLQGRVTMSTDTSTSTAYMELRSLRSDDTAVYYCAREGSSSSGDYYYGMDVWGQGTTVTVSS
VL: DIVMTQTPLSLSVTPGQPASISCKSNQSLLYSDGKTYLFWYLQKPGQPPQLLIYEVSNRFSGVPDRFSGSGSGTDFTLKISRVEAEDVGVYYCMQSIQLPWTFGQGTKVEIKR
notes: human IgG2 kappa from hybridoma 7.26.4
B2: anti-MAdCAM monoclonal antibody 6.22.2 (antibody, human IgG4, kappa, V domains shown)
VH: QVQLVESGGGVVQPGRSLRLSCAASGHTFSSDGMHWVRQAPGKGLEWVAIIWYDGSNKYYADSVKGRFTISRDNSKNTLYLQMNSLRAEDTAVYYCARDPGYYYGMDVWGQGTTVTVSS
VL: EIVLTQSPDFQSVTPKEKVTITCRASQRIGSSLHWYQQKPDQSPKLLIKYASQSFSGVPSRFSGSGSGTNFTLTINGLEAEDAATYYCHQSGRLPLTFGGGTKVEIKR
notes: human IgG4 kappa from hybridoma 6.22.2
B3: anti-MAdCAM monoclonal antibody 6.34.2 (antibody, human IgG4, kappa, V domains shown)
VH: QVQLVESGGGVVQPGRSLRLSCAASGFTFSSYGMHWVRQAPGKGLEWVAVISNDGNNKYYADSVKGRFTISRDNSKNTLYLQMNSLSAEDTAVYYCARDSTAITYYYYGMDVWGQGTTVTVSS
VL: DIQMTQSPSSLSASVGDRVTITCRASQNISSYLNWFQQKPGKAPKLLIYAASGLKRGVPSRFSGSGSGTDFTLTIRTLQPDDFATYSCHQSYSLPFTFGPGTKVDIKR
notes: human IgG4 kappa from hybridoma 6.34.2
B4: anti-MAdCAM monoclonal antibody 6.67.1 (antibody, human IgG4, kappa, V domains shown)
VH: QVQLQESGPGLVKPSETLSLTCTVSGDSISSNYWSWIRQPAGKGLEWIGRIYTSGGTNSNPSLRGRVTILADTSKNQFSLKLSSVTAADTAVYYCARDRITIIRGLIPSFFDYWGQGTLVTVSS
VL: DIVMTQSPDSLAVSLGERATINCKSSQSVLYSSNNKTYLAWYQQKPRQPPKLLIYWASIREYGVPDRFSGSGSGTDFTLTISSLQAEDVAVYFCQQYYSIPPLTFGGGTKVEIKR
notes: human IgG4 kappa from hybridoma 6.67.1
B5: anti-MAdCAM monoclonal antibody 7.20.5 (antibody, human IgG2, kappa, V domains shown)
VH: QVQLQESGPGLVKPSETLSLTCTVSGSSISSYHWNWIRQPAGKGLEWIGRIYTSGSTNYNPSLKSRVTMSLDTSKNQFSLKLSSVTAADTAVYYCAREGVRYYYASGSYYYGLDVWGQGTTVTVSS
VL: not shown
notes: human IgG2 kappa from hybridoma 7.20.5

Each binder was assayed against T1, recombinant mouse MAdCAM (mouse, UniProt Q61826 22-365) (assay: ELISA).
T1 sequence (looked up): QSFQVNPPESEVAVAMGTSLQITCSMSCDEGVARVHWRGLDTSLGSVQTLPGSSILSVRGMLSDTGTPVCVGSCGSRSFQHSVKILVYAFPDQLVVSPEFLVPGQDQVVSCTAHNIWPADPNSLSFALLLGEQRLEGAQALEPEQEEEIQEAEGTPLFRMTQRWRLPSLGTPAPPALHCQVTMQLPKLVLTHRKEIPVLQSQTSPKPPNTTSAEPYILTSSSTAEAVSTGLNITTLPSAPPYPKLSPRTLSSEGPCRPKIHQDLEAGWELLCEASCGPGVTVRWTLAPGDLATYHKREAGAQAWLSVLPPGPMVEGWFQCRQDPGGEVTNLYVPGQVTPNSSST
B1: no binding. B2: no binding. B3: no binding. B4: no binding. B5: no binding.

Each binder was assayed against MAdCAM-IgG1 Fc fusion protein (human) (assay: cell-based or functional assay).
For B1, the “Mean IC50, JY cell adhesion to MAdCAM IgG1 Fc fusion” value (“Mean IC50 … to MAdCAM IgG1 Fc fusion” below) was 0.021 µg/mL. For B2, the “Mean IC50 … to MAdCAM IgG1 Fc fusion” value was 0.018 µg/mL. B3 was tested, and the “Mean IC50 … to MAdCAM IgG1 Fc fusion” value was 0.013 µg/mL. For B4, the “Mean IC50 … to MAdCAM IgG1 Fc fusion” value was 0.013 µg/mL. For B5, the “Mean IC50 … to MAdCAM IgG1 Fc fusion” value was 0.025 µg/mL.

These binders were tested against T2, human MAdCAM (full length) (human, UniProt Q13477 19-382) (assay: cell-based or functional assay).
T2 sequence (looked up): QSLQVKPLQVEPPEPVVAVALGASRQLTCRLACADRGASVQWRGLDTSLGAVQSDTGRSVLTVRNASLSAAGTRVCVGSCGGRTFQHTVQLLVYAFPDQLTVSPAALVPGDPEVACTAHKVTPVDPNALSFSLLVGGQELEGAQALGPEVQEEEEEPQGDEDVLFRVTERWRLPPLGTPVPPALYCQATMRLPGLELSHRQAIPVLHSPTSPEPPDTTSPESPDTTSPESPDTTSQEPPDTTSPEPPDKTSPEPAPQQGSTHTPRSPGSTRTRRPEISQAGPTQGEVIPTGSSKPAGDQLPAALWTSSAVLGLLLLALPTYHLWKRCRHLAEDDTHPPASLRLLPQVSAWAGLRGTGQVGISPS
For B1, the “Mean IC50, JY cell adhesion, MAdCAM FlpIn CHO Assay” value (from here on “Mean IC50 … MAdCAM FlpIn CHO Assay”) was 0.574 µg/mL. For B2, the “Mean IC50 … MAdCAM FlpIn CHO Assay” value was 0.573 µg/mL. With B3 the “Mean IC50 … MAdCAM FlpIn CHO Assay” value was 0.285 µg/mL. With B4 the “Mean IC50 … MAdCAM FlpIn CHO Assay” value was 0.298 µg/mL. For B5, the “Mean IC50 … MAdCAM FlpIn CHO Assay” value was 0.387 µg/mL.

The binders below were run against T3, chimeric cynomolgus/human MAdCAM (cynomolgus; human, UniProt Q13477 226-382, limits assumed) (assay: cell-based or functional assay).
T3 sequence: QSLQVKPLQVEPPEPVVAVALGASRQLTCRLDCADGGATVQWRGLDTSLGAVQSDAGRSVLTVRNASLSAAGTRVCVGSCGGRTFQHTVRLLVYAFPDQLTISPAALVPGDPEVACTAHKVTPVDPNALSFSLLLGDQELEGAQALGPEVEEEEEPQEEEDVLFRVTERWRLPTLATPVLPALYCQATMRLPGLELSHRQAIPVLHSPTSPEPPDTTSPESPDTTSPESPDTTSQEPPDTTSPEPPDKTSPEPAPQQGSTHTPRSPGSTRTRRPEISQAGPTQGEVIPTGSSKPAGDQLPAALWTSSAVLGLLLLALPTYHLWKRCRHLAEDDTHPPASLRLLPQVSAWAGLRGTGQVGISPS
B1 was tested, and the “Functional IC50, cynomolgus/human MAdCAM-CHO/JY adhesion assay” value was 0.96 µg/mL. With B2 the “Functional IC50, cynomolgus/human MAdCAM-CHO/JY adhesion assay” value was 0.83 µg/mL. B3 was tested, and the “Functional IC50, cynomolgus/human MAdCAM-CHO/JY adhesion assay” value was 0.47 µg/mL. B4 was tested, and the “Functional IC50, cynomolgus/human MAdCAM-CHO/JY adhesion assay” value was 0.75 µg/mL. With B5 the “Functional IC50, cynomolgus/human MAdCAM-CHO/JY adhesion assay” value was 0.62 µg/mL.

The binders below were run against T4, MAdCAM-IgG1 Fc fusion protein (human) (assay: SPR BIAcore protocol 1: mAb captured, MAdCAM-IgG1 Fc injected).
T4 construct: Made in CHO-DHFR cells; also called MAdCAM-IgFc
Description: To perform kinetic analyses, a high density mouse anti-human (IgG₂ and IgG₄) antibody surface over a CMS BIAcore sensor chip was prepared using routine amine coupling. Hybridoma supernatants were diluted 10, 5, 2-fold in HBS-P (10 mM HEPES pH 7.4, 150 mM NaCl, 0.005% Surfactant P20) running buffer containing 100 μg/mL BSA and 10 mg/mL carboxymethyldextran or used neat. Each mAb was captured onto a separate surface using a […] contact time and a 5 mM wash for stabilization of the mAb baseline. MAdCAM-IgG₁ Fc (141 nM) fusion protein was then injected at over all surfaces for one minute, followed by a 3 mM dissociation. The data were normalized for the amount of antibody captured on each surface and evaluated with global fit Langmuir 1:1, using baseline drift models available on the BIAevaluation software provided by BIAcore.
In the case of B1, the Kd is reported as 0.271 nM, the koff is reported as 0.00026 s⁻¹ and the kon is reported as 960000 M⁻¹ s⁻¹. Binder B2 has a Kd of 0.0093 nM, a koff of 1.4e-05 s⁻¹ and a kon of 1.5e+06 M⁻¹ s⁻¹. B3 showed a Kd of 0.0158 nM, a koff of 1.9e-05 s⁻¹ and a kon of 1.2e+06 M⁻¹ s⁻¹. Work on B4 yielded a Kd of no more than 0.017 nM, a koff of no more than 1e-05 s⁻¹ and a kon of 590000 M⁻¹ s⁻¹. B5 showed a Kd of 0.0422 nM, a koff of 1.9e-05 s⁻¹ and a kon of 450000 M⁻¹ s⁻¹.

What follows are binders tested against T4, MAdCAM-IgG1 Fc fusion protein (assay: SPR BIAcore protocol 2: mAb amine-coupled, MAdCAM-IgG1 Fc injected).
Description: Affinity-purified mAb were immobilized onto the dextran layer of a CMS biosensor chip using amine coupling. […] Samples of MAdCAM-IgG₁ Fc fusion protein in running buffer were prepared at concentrations ranging from 0.2-55 nM (a 0 nM solution comprising running buffer alone was included as a zero reference). Samples were randomized and injected in duplicate for 3 mM each across 4 flow cells using HBS-EP (10 mM HEPES pH 7.4, 150 mM NaCl, 3 mM EDTA, 0.005% Surfactant P20) as running buffer. A flow rate of 100 μL/min was used to minimize mass transport limitations. Dissociation of MAdCAM-IgG₁ Fc fusion protein was monitored for 180 mins, the surface regenerated by a 6 sec injection of 25 mM H₃PO₄ (50 μL/min), or 10 mM (6.22.2), 20 mM (6.67.1, 6.73.2, 6.77.1) to 25 mM (6.34.2) and 45 mM NaOH (6.14.2) and the data analysed using the BIAevaluation (v3.1) software package.
Work on B1 yielded a Kd of 0.08 nM, a koff of 1.2e-05 s⁻¹ and a kon of 150000 M⁻¹ s⁻¹. With B2 the Kd was 0.0038 nM, the koff was 8.7e-07 s⁻¹ and the kon was 230000 M⁻¹ s⁻¹. Work on B3 yielded a Kd of less than 0.015 nM, a koff of less than 5e-06 s⁻¹ and a kon of 330000 M⁻¹ s⁻¹. Work on B4 yielded a Kd of less than 0.02 nM, a koff of less than 5e-06 s⁻¹ and a kon of 240000 M⁻¹ s⁻¹. B5 was tested, and the Kd was 0.075 nM, the koff was 1.2e-05 s⁻¹ and the kon was 160000 M⁻¹ s⁻¹.

The binders below were run against T4, MAdCAM-IgG1 Fc fusion protein (assay: cell-based or functional assay).
For B1, the “MAdCAM IgG1 Fc fusion Assay Mean IC50 (Parent)” value was 0.021 µg/mL. In the case of B2, the “MAdCAM IgG1 Fc fusion Assay Mean IC50 (Parent)” value is reported as 0.018 µg/mL. With B3 the “MAdCAM IgG1 Fc fusion Assay Mean IC50 (Parent)” value was 0.013 µg/mL. For B4, the “MAdCAM IgG1 Fc fusion Assay Mean IC50 (Parent)” value was 0.013 µg/mL.
